Numbered stars: 1 amine (or outer) side, 2 acyl side, 3 side chain; on linkers, the order of the positions; unused ones are H or OH. Bridge positions count the residues as written; N and C are the ends. Side chains are listed from the residue outwards. Ends that are not written are not given here. * marks the point of attachment. C20 diacid = O=C(O)CCCCCCCCCCCCCCCCCCC(=O)*; γGlu = O=C(O)[C@H](CCC(=O)[*:2])N[*:1]; AEEA = NCCOCCOCC(=O)O
T1: rat calcitonin receptor (rat, UniProt P32214 25-516)
T1 construct: whole, on cells; also called rCTR; rat calcitonin (a) receptor
T1 sequence (looked up): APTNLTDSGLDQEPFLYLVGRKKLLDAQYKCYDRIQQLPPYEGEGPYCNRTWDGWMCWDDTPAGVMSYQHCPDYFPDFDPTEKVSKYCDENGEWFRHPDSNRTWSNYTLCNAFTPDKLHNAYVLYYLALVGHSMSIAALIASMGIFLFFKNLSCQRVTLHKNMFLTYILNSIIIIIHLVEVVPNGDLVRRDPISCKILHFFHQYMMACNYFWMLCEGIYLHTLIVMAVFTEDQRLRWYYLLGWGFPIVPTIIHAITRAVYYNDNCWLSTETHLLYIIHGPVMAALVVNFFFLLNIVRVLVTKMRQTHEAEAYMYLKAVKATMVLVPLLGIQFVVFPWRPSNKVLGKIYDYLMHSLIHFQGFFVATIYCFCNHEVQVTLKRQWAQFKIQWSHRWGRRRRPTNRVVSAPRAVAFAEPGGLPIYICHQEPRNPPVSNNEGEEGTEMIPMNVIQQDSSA

T2: human calcitonin receptor (human, UniProt P30988 25-474)
T2 construct: whole, on cells; also called hCTR; hCT
T2 sequence (looked up): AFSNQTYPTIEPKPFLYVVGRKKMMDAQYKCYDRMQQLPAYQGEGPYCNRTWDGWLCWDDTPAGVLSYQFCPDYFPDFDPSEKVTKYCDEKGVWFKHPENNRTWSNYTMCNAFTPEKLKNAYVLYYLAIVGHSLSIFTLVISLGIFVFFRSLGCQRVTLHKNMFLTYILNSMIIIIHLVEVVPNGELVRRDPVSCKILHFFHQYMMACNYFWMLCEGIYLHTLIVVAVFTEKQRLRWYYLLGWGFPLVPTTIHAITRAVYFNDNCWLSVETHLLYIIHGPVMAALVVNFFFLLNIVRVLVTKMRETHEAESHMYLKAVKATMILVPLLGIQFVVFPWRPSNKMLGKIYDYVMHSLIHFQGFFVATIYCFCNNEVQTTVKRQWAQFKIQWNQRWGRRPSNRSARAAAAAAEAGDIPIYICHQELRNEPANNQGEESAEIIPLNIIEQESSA

T3: rat amylin receptor (rat calcitonin receptor + rat RAMP 3) (rat, UniProt P32214 25-516; Q9JJ73 23-147)
T3 construct: whole, on cells; also called rAmylin-R; rat amylin 3(a) receptor
T3 sequence (looked up) 1: T1 sequence (looked up)
T3 sequence (looked up) 2: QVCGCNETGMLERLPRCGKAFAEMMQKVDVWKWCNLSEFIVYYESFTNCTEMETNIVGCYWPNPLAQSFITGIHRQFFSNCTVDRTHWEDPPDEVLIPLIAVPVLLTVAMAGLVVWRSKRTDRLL

B1: N^ε1-[2-[2-[2-[[(4S)-4-carboxy-4-(19-carboxynonadecanoylamino)butanoyl]amino]ethoxy]ethoxy]acetyl]-[His14,Arg17,Pro21,Pro27]-h-amylin (peptide)
peptide: K([AEEA-γGlu-C20 diacid])CNTATCATQRLAHFLRHSSPNFGAIPSSTNVGSNTY-NH2
modifications: disulfide 2-7; N-terminus assumed
SMILES: CC[C@H](C)[C@H](NC(=O)[C@H](C)NC(=O)CNC(=O)[C@H](Cc1ccccc1)NC(=O)[C@H](CC(N)=O)NC(=O)[C@@H]1CCCN1C(=O)[C@H](CO)NC(=O)[C@H](CO)NC(=O)[C@H](Cc1c[nH]cn1)NC(=O)[C@H](CCCNC(=N)N)NC(=O)[C@H](CC(C)C)NC(=O)[C@H](Cc1ccccc1)NC(=O)[C@H](Cc1c[nH]cn1)NC(=O)[C@H](C)NC(=O)[C@H](CC(C)C)NC(=O)[C@H](CCCNC(=N)N)NC(=O)[C@H](CCC(N)=O)NC(=O)[C@@H](NC(=O)[C@H](C)NC(=O)[C@@H]1CSSC[C@H](NC(=O)[C@@H](N)CCCCNC(=O)COCCOCCNC(=O)CC[C@H](NC(=O)CCCCCCCCCCCCCCCCCCC(=O)O)C(=O)O)C(=O)N[C@@H](CC(N)=O)C(=O)N[C@@H]([C@@H](C)O)C(=O)N[C@@H](C)C(=O)N[C@@H]([C@@H](C)O)C(=O)N1)[C@@H](C)O)C(=O)N1CCC[C@H]1C(=O)N[C@@H](CO)C(=O)N[C@@H](CO)C(=O)N[C@H](C(=O)N[C@@H](CC(N)=O)C(=O)N[C@H](C(=O)NCC(=O)N[C@@H](CO)C(=O)N[C@@H](CC(N)=O)C(=O)N[C@H](C(=O)N[C@@H](Cc1ccc(O)cc1)C(N)=O)[C@@H](C)O)C(C)C)[C@@H](C)O
notes: synthetic analogue of human amylin; also called compound 69
B2: N^ε1-[2-[2-[2-[[(4S)-4-carboxy-4-(19-carboxynonadecanoylamino)butanoyl]amino]ethoxy]ethoxy]acetyl]-[Ala14,Arg17,Pro21,Pro27,Pro31]-h-amylin (peptide)
peptide: K([AEEA-γGlu-C20 diacid])CNTATCATQRLAAFLRHSSPNFGAIPSSTPVGSNTY-NH2
modifications: disulfide 2-7; N-terminus assumed
SMILES: CC[C@H](C)[C@H](NC(=O)[C@H](C)NC(=O)CNC(=O)[C@H](Cc1ccccc1)NC(=O)[C@H](CC(N)=O)NC(=O)[C@@H]1CCCN1C(=O)[C@H](CO)NC(=O)[C@H](CO)NC(=O)[C@H](Cc1c[nH]cn1)NC(=O)[C@H](CCCNC(=N)N)NC(=O)[C@H](CC(C)C)NC(=O)[C@H](Cc1ccccc1)NC(=O)[C@H](C)NC(=O)[C@H](C)NC(=O)[C@H](CC(C)C)NC(=O)[C@H](CCCNC(=N)N)NC(=O)[C@H](CCC(N)=O)NC(=O)[C@@H](NC(=O)[C@H](C)NC(=O)[C@@H]1CSSC[C@H](NC(=O)[C@@H](N)CCCCNC(=O)COCCOCCNC(=O)CC[C@H](NC(=O)CCCCCCCCCCCCCCCCCCC(=O)O)C(=O)O)C(=O)N[C@@H](CC(N)=O)C(=O)N[C@@H]([C@@H](C)O)C(=O)N[C@@H](C)C(=O)N[C@@H]([C@@H](C)O)C(=O)N1)[C@@H](C)O)C(=O)N1CCC[C@H]1C(=O)N[C@@H](CO)C(=O)N[C@@H](CO)C(=O)N[C@H](C(=O)N1CCC[C@H]1C(=O)N[C@H](C(=O)NCC(=O)N[C@@H](CO)C(=O)N[C@@H](CC(N)=O)C(=O)N[C@H](C(=O)N[C@@H](Cc1ccc(O)cc1)C(N)=O)[C@@H](C)O)C(C)C)[C@@H](C)O
notes: synthetic analogue of human amylin; also called compound 72
B3: N^ε1-[2-[2-[2-[[(4S)-4-carboxy-4-(19-carboxynonadecanoylamino)butanoyl]amino]ethoxy]ethoxy]acetyl]-[Arg14,Arg17,Pro21,Pro27,Pro31]-h-amylin (peptide)
peptide: K([AEEA-γGlu-C20 diacid])CNTATCATQRLARFLRHSSPNFGAIPSSTPVGSNTY-NH2
modifications: disulfide 2-7; N-terminus assumed
SMILES: CC[C@H](C)[C@H](NC(=O)[C@H](C)NC(=O)CNC(=O)[C@H](Cc1ccccc1)NC(=O)[C@H](CC(N)=O)NC(=O)[C@@H]1CCCN1C(=O)[C@H](CO)NC(=O)[C@H](CO)NC(=O)[C@H](Cc1c[nH]cn1)NC(=O)[C@H](CCCNC(=N)N)NC(=O)[C@H](CC(C)C)NC(=O)[C@H](Cc1ccccc1)NC(=O)[C@H](CCCNC(=N)N)NC(=O)[C@H](C)NC(=O)[C@H](CC(C)C)NC(=O)[C@H](CCCNC(=N)N)NC(=O)[C@H](CCC(N)=O)NC(=O)[C@@H](NC(=O)[C@H](C)NC(=O)[C@@H]1CSSC[C@H](NC(=O)[C@@H](N)CCCCNC(=O)COCCOCCNC(=O)CC[C@H](NC(=O)CCCCCCCCCCCCCCCCCCC(=O)O)C(=O)O)C(=O)N[C@@H](CC(N)=O)C(=O)N[C@@H]([C@@H](C)O)C(=O)N[C@@H](C)C(=O)N[C@@H]([C@@H](C)O)C(=O)N1)[C@@H](C)O)C(=O)N1CCC[C@H]1C(=O)N[C@@H](CO)C(=O)N[C@@H](CO)C(=O)N[C@H](C(=O)N1CCC[C@H]1C(=O)N[C@H](C(=O)NCC(=O)N[C@@H](CO)C(=O)N[C@@H](CC(N)=O)C(=O)N[C@H](C(=O)N[C@@H](Cc1ccc(O)cc1)C(N)=O)[C@@H](C)O)C(C)C)[C@@H](C)O
notes: synthetic analogue of human amylin; also called compound 64
B4: N^ε1-[2-[2-[2-[[(4S)-4-carboxy-4-(19-carboxynonadecanoylamino)butanoyl]amino]ethoxy]ethoxy]acetyl]-[Arg14,Arg17,Pro21,Pro27]-h-amylin (peptide)
peptide: K([AEEA-γGlu-C20 diacid])CNTATCATQRLARFLRHSSPNFGAIPSSTNVGSNTY-NH2
modifications: disulfide 2-7; N-terminus assumed
SMILES: CC[C@H](C)[C@H](NC(=O)[C@H](C)NC(=O)CNC(=O)[C@H](Cc1ccccc1)NC(=O)[C@H](CC(N)=O)NC(=O)[C@@H]1CCCN1C(=O)[C@H](CO)NC(=O)[C@H](CO)NC(=O)[C@H](Cc1c[nH]cn1)NC(=O)[C@H](CCCNC(=N)N)NC(=O)[C@H](CC(C)C)NC(=O)[C@H](Cc1ccccc1)NC(=O)[C@H](CCCNC(=N)N)NC(=O)[C@H](C)NC(=O)[C@H](CC(C)C)NC(=O)[C@H](CCCNC(=N)N)NC(=O)[C@H](CCC(N)=O)NC(=O)[C@@H](NC(=O)[C@H](C)NC(=O)[C@@H]1CSSC[C@H](NC(=O)[C@@H](N)CCCCNC(=O)COCCOCCNC(=O)CC[C@H](NC(=O)CCCCCCCCCCCCCCCCCCC(=O)O)C(=O)O)C(=O)N[C@@H](CC(N)=O)C(=O)N[C@@H]([C@@H](C)O)C(=O)N[C@@H](C)C(=O)N[C@@H]([C@@H](C)O)C(=O)N1)[C@@H](C)O)C(=O)N1CCC[C@H]1C(=O)N[C@@H](CO)C(=O)N[C@@H](CO)C(=O)N[C@H](C(=O)N[C@@H](CC(N)=O)C(=O)N[C@H](C(=O)NCC(=O)N[C@@H](CO)C(=O)N[C@@H](CC(N)=O)C(=O)N[C@H](C(=O)N[C@@H](Cc1ccc(O)cc1)C(N)=O)[C@@H](C)O)C(C)C)[C@@H](C)O
notes: synthetic analogue of human amylin; also called compound 82

biological target: T1, rat calcitonin receptor; experiment: ratio of binding IC50s: rat calcitonin receptor over rat amylin receptor (reference)

Row | Binder | Ratio rCT/rAmylin binding
1 | B1 | 104
2 | B2 | 259
3 | B3 | 64.7
4 | B4 | 87

biological target: T2, human calcitonin receptor; experiment: ratio of binding IC50s: human calcitonin receptor over human amylin receptor (reference)
Experimental: The resulting pellet was resuspended, homogenized and centrifuged (20.000 rpm, 15 min) in a buffer containing 20 mM Na-HEPES and 0.1 mM EDTA (pH 7.4, buffer 2). The resulting pellet was resuspended in buffer 2 and protein concentration was measured (BCA protein Assay, Pierce). The homogenate was kept cold during the whole procedure. The membranes were kept at −80° C. until use. The assay was performed in a 384 well Optiplate (PerkinElmer) in a total volume of 40 ul. Membranes were mixed with SPA beads. Final concentration of membranes 35 ng/μL final and SPA beads was 0.05 mg/well. Test-compounds were dissolved in DMSO and further diluted in assay buffer (50 mM Hepes, pH 7.4, 1 mM CaCl2, 5 mM MgCl₂, 0.1% OA and 0.02% Tween20). […] The final mixture was incubated with shaking at 400 rpm for 120 min at 25° C. prior to centrifugation (1500 rpm, 10 min). Samples were analyzed on TopCounter™ (Packard). The IC₅₀ was calculated using (one site binding competition analysis) GraphPad Prism5 as a measure of receptor affinity.
Membranes were prepared in the following way; the cells were rinsed with PBS and incubated with Versene for approximately 5 min before harvesting. The cells were flushed with PBS and the cell-suspension was centrifuged for 5 min at 1000 rpm. Cells were homogenized (Ultrathurrax) in a buffer containing 20 mM Na-HEPES and 10 mM EDTA (pH 7.4) and centrifuged at 20.000 rpm for 15 min. The resulting pellet was resuspended, homogenized and centrifuged (20.000 rpm, 15 min) in a buffer containing 20 mM Na-HEPES and 0.1 mM EDTA (pH 7.4, buffer 2). The resulting pellet was resuspended in buffer 2 and protein concentration was measured (BCA protein Assay, Pierce). The homogenate was kept cold during the whole procedure. The membranes were kept at −80° C. until use. Assay was performed in a 384 well Optiplate (PerkinElmer) in a total volume of 40 ul. Membranes were mixed with SPA beads.

Row | Binder | Ratio hCT/hAmylin binding
5 | B1 | 65.3
6 | B2 | 247
7 | B3 | 126
8 | B4 | 140

biological target: T1, rat calcitonin receptor; experiment: SPA competition with 125I-calcitonin, membranes of BHK cells with rat calcitonin receptor (Assay VIII)

Row | Binder | IC50
9 | B1 | 46.8 nM
10 | B2 | 221 nM
11 | B3 | 128 nM
12 | B4 | 143 nM

biological target: T3, rat amylin receptor (rat calcitonin …); experiment: SPA competition with 125I-rat amylin, membranes of BHK cells with rat calcitonin receptor + rat RAMP3 (Assay VI)

Row | Binder | IC50
13 | B1 | 0.45 nM
14 | B2 | 0.851 nM
15 | B3 | 1.97 nM
16 | B4 | 1.64 nM

— patent US20140087995A1 (published 2014)
